The values that follow come from patent US20230190887A1, “TARGETING G3BP AGGREGATION TO PREVENT NEURODEGENERATION” (priority 2019, published 2023).

The target in experiment [1] is DCP1A, endogenous rat protein in axons of cultured adult DRG neurons (rat) (UniProt D4AE80). The experiment in a line: proximity ligation assay in axons of fixed rat DRG neurons.
For experiment [2], the target named is HuR (ELAVL1), endogenous rat protein in axons of cultured adult DRG neurons (rat) (UniProt B5DF91). The experiment is described as above.
Sequence of HuR (ELAVL1), endogenous rat protein in axons of cultured adult DRG neurons (rat) (B5DF91 2-326): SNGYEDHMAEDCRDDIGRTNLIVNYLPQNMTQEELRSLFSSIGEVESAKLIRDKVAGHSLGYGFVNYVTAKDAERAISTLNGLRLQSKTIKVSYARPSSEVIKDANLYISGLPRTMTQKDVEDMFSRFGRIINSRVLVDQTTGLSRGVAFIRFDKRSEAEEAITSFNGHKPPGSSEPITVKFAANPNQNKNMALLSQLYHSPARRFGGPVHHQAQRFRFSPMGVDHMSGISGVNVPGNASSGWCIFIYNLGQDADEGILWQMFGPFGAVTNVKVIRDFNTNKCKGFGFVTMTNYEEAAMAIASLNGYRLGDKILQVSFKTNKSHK
The test system of experiment [3] is NMJs in co-cultures with puromycin-resistant muscles. The experiment in a line: NMJ function after local protein synthesis inhibition. The class given is cell-based, mouse. The conditions noted are these: Puromycin 100 μg/mL exclusively in NMJ compartment, 16 h. As to the method:
Analysis of NMJ function following protein synthesis inhibition with puromycin was performed by co-culturing WT MNs with primary muscles transfected with empty […]-mCherry vectors expressing PAC gene for puromycin resistance. After 12 days in co-culture, once cultures matured and NMJ were formed, Puromycin (100 μg/mL) was added exclusively to the distal (NMJ) compartment for 16 h. The proximal compartment was kept with higher volume of medium for allowing puromycin to act only locally within the NMJ compartment. After 16 h, cultures were labeled with OGB, and the calcium activity of axons and muscles was recorded. Analysis of the percent of muscles with calcium transients in co-culture, was performed on muscles with at least one overlapping axon. Only muscles that expressed mCherry (as a reporter for the expression of PAC) were used for this analysis. OGB lyophilized stock (Life technologies) was resuspended with 20% (w/v) Pluronic acid for a stock concentration of 3 mM Stock was diluted 1:1,000 in the appropriate medium. OGB was incubated with cultures for […] in 37° C., 5% CO2 incubator, and then washed 3 times with culture medium prior imaging. Calcium transients in axons and muscles were recorded in a spinning disk confocal microscope equipped with an EMCCD camera with ×40 oil objective using 488 nm laser. Image sequences of 1,000 frames were acquired at frame rate of 25 FPS. […]

As for “G3BP1 (Ras GAP SH3 domain binding protein 1), endogenous rat protein in axons of cultured adult DRG neurons (from UniProt D3ZYS7 1-465)”, the PLA signals per area in experiment [1] was 0.027 signals/m^2; in experiment [2], 0.038. For `COc1ccc(C[C@H](N)C(=O)N[C@H]2[C@@H](O)[C@H](n3cnc4c(N(C)C)ncnc43)O[C@@H]2CO)cc1` [puromycin, Puromycin], in experiment [3], the “active (innervated and contracting) muscles, calcium transients” value is given as “pronounced decrease in active muscles”.
